According to the DeepSol protein solubility set:

Assay: soluble on expression in E. coli; label from the status in PepcDB or PDB records

Soluble on expression in E. coli, not soluble:
MAHHHHHHMECVELTPSESGTINRRGAIPANLAGNSYYARRYSTQGGTRRGTLDATEPHVQFRSGDLVLQLCLSAVPRELSHKRIVDVTGIQTSFHNVSERQSKALATVEEAMQTMHLHDGHEVPALQRGDVNLVRLQPRCVYISPPPSHSFAAGEAVAVDLRHLSSALRPLSNPYVLLAQTRRLSFRSEMEAVQTAQVMASFLTELRGGGAVSEGCGSSVGVFGSAAVLRPVVRDGHLVAMTLCPPRDTARGCRRR
MVGEGEIELRNELPGGEVHAAWHLRYAGHDFFVKCDEREMLRGFTAEADQLELLSRSKTVVVPKVWAVGSDRDYSFLVMDYLSPRPLDAHNAFILGQQLARLHQWSDQPQFGLDFDNALSTTPQPNTWQRRWSTFFAEQRIGWQLELAAEKGITFGNIDAIVEHVQQRLASHQPQPSLLHGDLWSANCALGPDGPYIFDPACYWGDRECDLAMLPLHTDQPPQIYDGYQSVSPLPLDFLDRQPIYQLYTLLNRARLFGGQHLATAQKAMDRLLAVLEHHHHHH
MIEIKQVKTQDEVNYTFVEKLMHTAFPQEERRDTVQQREYSDNNPRFCNNIILENGNSIGMISYWTMGDFYYIEHFAIDPSLRNGGYGKRVLEMIKKQLKGPIVLEVEEPNDEMSTRRIHFYKRLEFTLHKKPYIQPPYRKGDSGLPMLLMTYGDIDMESDFEKVKKTLYKEVYGQEI
MTEAEILRLIRRVSGISQQADEQTTQPDSVTAENYARVVAEVMRRDGIQLNDADMRDIRIRVLEMLAYNRRVELYREKEKITYHWKKPERLRR
MGSDKIHHHHHHMRLNPERPLLSGSCTQYLDWGLPIAMDAVGPGEARRILDRYGADRVLLVGPPGVGKSTVVRSYAEDSASREGLEFVDLSEARSLEDLDTDSTYAFLHIYAPLVRAEDLAFIARRGEGYDWTLPSRLAYLTRPGVRGLVFIDEITNVALPEVQTILFSMVLDKRVAYNRLSSGVEVVAAGNSPRDSPVSQWPPPPLLDRFRLLIRVKPPDLEEWVSWMNSVGRPWDRRVAAVLKVKPVLMYRPPEDEEDKFPTPRSWSQLAWELAKTGAHGDEAVRIAAMVVGRRAAEEARQFLQPDPASLDLSTFPRLDERERLTLLSVEAGRLASQDVVELCRTLEKVGSYGAHYAVWLLMLSGVDTVEAARSCSYVEDLLSRLSSYLG
MAHHHHHHMLRRNIRLRKEYLYLKKVEDEKKKYAEKIKSIKESYDKNKKIRGDLKDEESELRKNMNLYDEKSFDRKVDDEYFFCGLENPRVLITTSRNPSSTLENFAKELKLIIPNSEKINRGSYFIKDILNFARKNNITDVIILHEYKGIPRNLIICHLPFGPTLFCTIKDCKMRCEFNEKIDNISLCTPHLIFHNFHSDLGKRIMNIFKYLFPPVTMRTNKRKMPKHNSQIVKDNKLNKNININTNNNDTNQMDQMDQMNKIKFVTHTTQDDEDNNDHLQIYFKNNEYLNLQKYENNRVIVFFNKNDIIYFRHYNWEKNQTNEIVLKEIGPRFSFVVYKINKETLDSLNEDYEYIYRPFMNSRKALLT
MDESEPVRQIYDHKDLAEFLESSAFQDIWDFVERLNCSVRGLSGDALAGPRVPATSLVTAELAALKELAAEVELLPAETGRFGNRAFRTWFSQLQERTPRFTEELLVKSDQTKRYGPDLQAYFLGAFGDPMRIDYGTGHEASFLLFMFCLHRLHLFRAEDFPELVLSVFPAYLATTRYLQQRFTLEPAGSHGVWGLDDYVFLPFLFGSSQLIGKDTEVPPVAARDRELVLELAPKYLYFDTIRFILETKRGPFAEHSPTLYDISGLENWSRINAGLLRMYKAEVWSKLPVIQHIPFGILIPFRSAARTSTERLPAGS
MGSDKIHHHHHHMNEADVTKFVNNARKTLTDAQLLCSSANLRIVDIKKKLSSWQLSISKLNFLIVGLRQQGKFLYTILKEGIGTKLIQKQWNQAVLVVLVDEMKYWQYEITSKVQRLDGIVNELSISEKDDTDPSKLGDYISRDNVNLLNDKLKEVPVIERQIENIKLQYENMVRKVNKELIDTKLTDVTQKFQSKFGIDNLMETNVAEQFSRELTDLEKDLAEIMNSLTQHFDKTLLLQDKKIDNDEREELFKVVQGDDKELYNIFKTLHEVIDDVDKTILNLGQFLQAKIKEKTELHSEVSEIINDFNRNLEYLLIFKDISNLIDSFKNSCTQDIQTTKELCEFYDNFEESYGNLVLEAKRRKDVANRMKTILKDCEKQLQNLDAQDQEERQNFIAENGTYLPETIWPGKIDDFSSLYTLNYNVKNP
MGSDKIHHHHHHMAKIGIVICNYNKQNDVIDCIQSVLESKYEDYHIYVVDNASTDESVRLIRECYGSCDRLTLIENSENLGGSGGFNTGLRVAMAEGHMYLMCVDNDALLDENCIGTLSDFLDSHEKAGIAAAKIYHTGQENYVQQYGSFIDYDNYSVDSTYLNHIEDGSMPDVVYSDAVPACALMIRRTVVEQIGVMPEENFLYWDDTEWCVRCREAGYEVASVGAAAASHAMGAKKEDINTFPTYYAWRNWIKFFLDHIDEERLSDMAETFLGSIFEINYTDLYRGEENRSKTVMAALDDALHKVMGKAKEDRIFNLELTYDGLERAIGDKSDIAIMAGEFPLYADALKEKIKVMWPDKRVYIVGLQDIDEAYGTAHFQPDATITICESIFRQDDLSLSTYVMDLDGNVLVDEDDVLMVINYNFSRRSFIFSMKPLFMRLSRQNYGF
MGSDKIHHHHHHMNKTCERTSGDCTGESKARAASDRVTPCFTPGTLIATPRGERLVENLQVGDRVITRDNGIQEIRWFGHNAMGPQDLSHASHLQPILIRQGALGNGLPERDMMVSPNHRVLVANDKTALYFEDREVLVAAKHLTGLTGIDAIVTTAVTYIHFMFNQHEVVLSDGAWTESFQPVDQSLRGLDNAQRNEIFELFPELRTKEGQKAYPSARRELKEREARMLLH
DSPPSESLPSADSNRTHIVNGVGAFQSKVHPSIVTVLYFPGPVTSAISSDDQSFETSIVGHSVVIRPAPNVTAKTVGNINITTRAMNVSLTMRIAERPEDAATQLVFRALSEVEAFETRVAAEVERVRQEVEHEYERRHRNLEREVTHATEQAIARRMLMRHEGREFGAIARNEHNIIARVTRAQWIGPELYLYFEIQNRDSTPYHLAHVRLLGPTGESDHVDHLEFAGAGDVIDGSLGTVLSGQRGRGIVHVRDAARFAGKPFTFLVSEARERRAVSIGGITW
MSCSHYEERVEKVELPQLKVNGMAIGEDLLARELQYHPADSYALALEAACRALIVRQLLLQRADALGIEARCEDGETPEEARIRQLLEEEVQVPEADEDACRTWYAANPGRLLGPWRLQLRHVLLACAPDDLEGRETARKQAAELLDELRGHPERFVDLARRFSACPSKESGGDLGWIEPGQTVPEFEKRLLRRAPGLLEHPLESRYGLHVVELLAREGGEPLDFDAARAQIAAHLQAQVLQRAVGQYIGVLAGD
MQILQVRLKNLNSLVGEWEIDFTDPAFVSDGIFSITGPTGAGKTTVLDAICLALYGRTPRLGKVSKSENEIMSRQTGECFAEVTFAAQSGCFRCHWSQHRAHKKPDGELQNPRHELAEADSGKILETRLTEVGRQIEKITGMDFARFTRSMLLAQGEFAAFLQAAPDERAPILEQITGTEIYSRISIRVHETRVSARRELDRLSAGLNGIQPLT
MDKHQQAIITVSAYITNDTGEVLLVKSYDRSDTWEMPGGQVEPGEPLDRAVHREVYEETGVDIRLIGVSGVYYNETKNIINIVFKATYVKGNVSPQPEEIQKAKFVLIDESNIDEYVTWPHLKSRVLDAMKRECSVPYETWVMNPSRLSARVGR

Soluble on expression in E. coli, soluble:
MIDMFHINIPFKKDVIIEMGDCGFVDFAKLAEKTELKIACGNVEFSVVNDQKKVRTDDLYHPWSTIPSSYTDIACKVFDAEPRANVFWGYLQLKASPAKVMQGHNVYGSEDFRLCVEYLLDSLQKAQPELWELLDVGLAEMTRIDCTYSIKCANPDILRQTIKQMGNVSNRYIKPARNSDFETTLYFNRATKANPGAGRSFELCIYTKHDEIAHQLADLKRRARQGDSDRFNRIIDELSKPELQAFAANRLRFEGRAKKRFIQKHVGSANLWQVIRHAEQFEAKNGYRFCEWMFKTLFHDLLESLKGEELELYNDSKIKQLLRDAYSTMTPKLEHHHHHH
GPGSMTERLSLSRDRINVLLLEGISQTAVEYFKSSGYTNVTHLPKALDKADLIKAISSAHIIGIRSRTQLTEEIFAAANRLIAVGCFSVGTNQVELKAARKRGIPVFNAPFSNTRSVAELVIGEIIMLMRRIFPRSVSAHAGGWEKTAIGSREVRGKTLGIVGYGNIGSQVGNLAESLGMTVRYYDTSDKLQYGNVKPAASLDELLKTSDVVSLHVPSSKSTSKLITEAKLRKMKKGAFLINNARGSDVDLEALAKVLQEGHLAGAAIDVFPVEPASNGERFSTPLQGLENVILTPHIGGSTEEAQERIGTEVTRKLVEYSDVGSTVGAVNFPQVQLPPRPTGTRFMHVHENRPGILNSLMNVFSHHHINIASQFLQTDGEVGYLVMEADGVGEASDAVLQEIREIPGTIRARLLY
MSLSQLAYEKILNLIINGKYKPGNLLKEDELANTLNISRTPVREALARLERDGIIIKSGKSYSVIPLSAEDIIQIYEIRIPLEAEASKLASIRGTEEELKKMLDIIEEIKRVKEDAEPLTLAELNGKLHRTISEASHNKFLADILENIRLKLKIVRVTLFTSFQRREEELREHSEIVTAIIERNPDKAYQLMKEHELNVLEYVKKNILPILFR
MTPEAAYQNLLEFQRETAYLASLGALAAWDQRTMIPKKGHEHRARQMAALARLLHQRMTDPRIGEWLEKVEGSPLVQDPLSDAAVNVREWRQAYERARAIPERLAVELAQAESEAESFWEEARPRDDWRGFLPYLKRVYALTKEKAEVLFALPPAPGDPPYGELYDALLDGYEPGMRARELLPLFAELKEGLKGLLDRILGSGKRPDTSILHRPYPVEAQRRFALELLSACGYDLEAGRLDPTAHPFEIAIGPGDVRITTRYYEDFFNAGIFGTLHEMGHALYEQGLPKEHWGTPRGDAVSLGVHESQSRTWENLVGRSLGFWERFFPRAREVFASLGDVSLEDFHFAVNAVEPSLIRVEADEVTYNLHILVRLELELALFRGELSPEDLPEAWAEKYRDHLGVAPKDYKDGVMQDVHWAGGLFGYFPTYTLGNLYAAQFFQKAEAELGPLEPRFARGEFQPFLDWTRARIHAEGSRFRPRVLVERVTGEAPSARPFLAYLEKKYAALYG
MYGPGYAPYYGSPYGDPCYGPAYGPAYGPTYVQPIAQPVYVHDTRAEEACCAGACCMALFCCCAMNS
GPGSPSEENEGRQFIVCYYLADDTVSVFELQVPNSGHVGGKIFARRAVENLQDPTLLKVGNTIRLDGVDYLLKEMDERTKRYLEMGMPNMDESYFRTQEILGIAASYLQQQFSRITDAFRHYASSSTQGLTRENVREMLSDAGVHATDAELTNVMERADGDKDGWVSLADFTEQFMQQLFISNFKPRESQKRWGDTRNGVVVQRG
DVQLQASGGGLVQPGGSLRVSCAASGFTFSSYHMAWVRQAPGKGLEWVSTINPGDGSTYYADSVKGRFTISRDNAKNTLYLQMNSLKSEDTAVYYCAKYSGGALDAWGQGTQVTVSSQSEQKLISEEDLNHHHHH
MSPDSCPLVKNILLLDSEGKRVAVKYYSDDWPTNAAKLSFEKYVFSKTSKTNARTEAEITLLDSNIIVYKFAQDLHFFVTGGENENELILASVLQGFFDAVALLLRSNVEKMEALENLDLIFLCLDEMVDQGVVLETDPNVIAGKVAMQSTEASGSLSEQTLTQALATAREHLARSLLT
